B1: PfHPPD-02: nucleotide sequence encoding wild-type Pseudomonas fluorescens HPPD; vector DBN11770 (nucleic acid)
DNA: ATGGCCGATTTGTACGAGAACCCAATGGGACTCATGGGTTTCGAGTTCATTGAGTTCGCTTCCCCCACCCCAGGTACTTTGGAGCCTATTTTCGAGATCATGGGCTTCACTAAGGTTGCCACACACAGGTCTAAGAATGTGCATCTCTACCGCCAAGGAGAGATTAACCTGATCCTTAACAATGAGCCTAATAGCATCGCCTCATACTTCGCTGCTGAGCATGGTCCATCTGTTTGCGGCATGGCTTTCAGAGTGAAGGATTCACAAAAGGCCTACAACAGGGCTTTGGAGCTCGGCGCCCAGCCCATTCATATCGACACCGGACCTATGGAGCTGAATCTTCCTGCCATTAAGGGCATCGGCGGAGCTCCATTGTACCTCATTGATCGCTTCGGCGAGGGCTCCTCTATCTACGATATCGACTTCGTGTACCTGGAGGGCGTTGAGAGAAACCCTGTGGGAGCTGGTCTGAAGGTTATCGACCACCTTACTCATAATGTTTACAGAGGAAGGATGGTGTACTGGGCCAACTTCTACGAGAAGCTGTTCAATTTCCGCGAGGCTAGATACTTCGATATTAAGGGCGAGTACACAGGACTTACCTCCAAGGCCATGTCTGCTCCCGACGGTATGATTAGGATCCCATTGAACGAGGAGAGCTCAAAGGGCGCCGGACAGATTGAGGAGTTCCTCATGCAATTCAATGGTGAAGGCATCCAGCACGTTGCTTTCCTGACAGATGACCTTGTGAAGACCTGGGATGCCCTCAAGAAGATTGGCATGAGGTTCATGACCGCTCCACCTGACACTTACTACGAGATGTTGGAGGGACGCCTCCCTGATCATGGCGAGCCCGTTGACCAGCTGCAAGCTAGAGGAATCCTCCTGGATGGTTCCTCTGTGGAGGGCGACAAGAGGCTTTTGCTCCAAATTTTCAGCGAGACTCTTATGGGACCCGTGTTCTTCGAGTTCATCCAGAGGAAGGGCGATGACGGATTCGGCGAGGGCAACTTCAAGGCCCTGTTCGAGTCTATTGAGAGAGATCAGGTGAGGCGCGGCGTTCTTACAGCTGACTGA
modifications: PfHPPD-02 Nucleotide Sequence
notes: vector DBN11770
B2: PfHPPDm-F372A-F383W-02: nucleotide sequence encoding Pseudomonas fluorescens HPPD with F372A+F383W; vector DBN11773 (nucleic acid)
DNA: ATGGCCGATTTGTACGAGAACCCAATGGGACTCATGGGTTTCGAGTTCATTGAGTTCGCTTCCCCCACCCCAGGTACTTTGGAGCCTATTTTCGAGATCATGGGCTTCACTAAGGTTGCCACACACAGGTCTAAGAATGTGCATCTCTACCGCCAAGGAGAGATTAACCTGATCCTTAACAATGAGCCTAATAGCATCGCCTCATACTTCGCTGCTGAGCATGGTCCATCTGTTTGCGGCATGGCTTTCAGAGTGAAGGATTCACAAAAGGCCTACAACAGGGCTTTGGAGCTCGGCGCCCAGCCCATTCATATCGACACCGGACCTATGGAGCTGAATCTTCCTGCCATTAAGGGCATCGGCGGAGCTCCATTGTACCTCATTGATCGCTTCGGCGAGGGCTCCTCTATCTACGATATCGACTTCGTGTACCTGGAGGGCGTTGAGAGAAACCCTGTGGGAGCTGGTCTGAAGGTTATCGACCACCTTACTCATAATGTTTACAGAGGAAGGATGGTGTACTGGGCCAACTTCTACGAGAAGCTGTTCAATTTCCGCGAGGCTAGATACTTCGATATTAAGGGCGAGTACACAGGACTTACCTCCAAGGCCATGTCTGCTCCCGACGGTATGATTAGGATCCCATTGAACGAGGAGAGCTCAAAGGGCGCCGGACAGATTGAGGAGTTCCTCATGCAATTCAATGGTGAAGGCATCCAGCACGTTGCTTTCCTGACAGATGACCTTGTGAAGACCTGGGATGCCCTCAAGAAGATTGGCATGAGGTTCATGACCGCTCCACCTGACACTTACTACGAGATGTTGGAGGGACGCCTCCCTGATCATGGCGAGCCCGTTGACCAGCTGCAAGCTAGAGGAATCCTCCTGGATGGTTCCTCTGTGGAGGGCGACAAGAGGCTTTTGCTCCAAATTGCTAGCGAGACTCTTATGGGACCCGTGTGGTTCGAGTTCATCCAGAGGAAGGGCGATGACGGATTCGGCGAGGGCAACTTCAAGGCCCTGTTCGAGTCTATTGAGAGAGATCAGGTGAGGCGCGGCGTTCTTACAGCTGACTGA
modifications: PfHPPDm-F372A-F383W-02 Nucleotide Sequence
notes: vector DBN11773

Tested on: Arabidopsis thaliana T1 plants
Experiment: Mesotrione tolerance of transgenic Arabidopsis thaliana T1 plants (spray, bleached leaf area grade, damage score)
Assay type: in vivo
Design: Scores: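 damage score 0-100 computed as Σ(N×S)/(T×M)×100 over grades 0-3 with higher meaning more damage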
Details: Arabidopsis thaliana T1 plants; for Grade 0 (classification and statistics of the grade of pesticide damage; number of plants) / Grade 1 (classification and statistics of the grade of pesticide damage; number of plants) / Grade 2 (classification and statistics of the grade of pesticide damage; number of plants) / Grade 3 (classification and statistics of the grade of pesticide damage; number of plants): 16 plants
Source text: T1 transformants were initially selected from the untransformed seeds using a glufosinate selection scheme. The Arabidopsis thaliana T1 plants (AsHPPD-02) into which the AsHPPD-02 nucleotide sequence was introduced, the Arabidopsis thaliana T1 plants (AsHPPDm-F372A-02) into which the AsHPPDm-F372A-02 nucleotide sequence was introduced, the Arabidopsis thaliana T1 plants (AsHPPDm-F383W-02) into which the AsHPPDm-F383W-02 nucleotide sequence was introduced, the Arabidopsis thaliana T1 plants (AsHPPDm-F372A-F383W-02) into which the AsHPPDm-F372A-F383W-02 nucleotide sequence was introduced, the Arabidopsis thaliana T1 plants (DBN11726N) into which the control recombinant expression vector DBN11726N was introduced, and the wild-type Arabidopsis thaliana plants (CK) (18 days after sowing) were sprayed respectively with topramezone at three concentrations (100 g ai/ha (four-fold field concentration, 4×), 200 g ai/ha (eight-fold field concentration, 8×), and 0 g ai/ha (water, 0×)), isoxaflutole at three concentrations (140 g ai/ha (two-fold field concentration, 2×), 280 g ai/ha (four-fold field concentration, 4×), and 0 g ai/ha (water, 0×)), and mesotrione at three concentrations (210 g ai/ha (two-fold field concentration, […]), 420 g ai/ha (four-fold field concentration, 4×), and 0 g ai/ha (water, 0×)), to determine the tolerance of Arabidopsis thaliana to the herbicides. The degree of damage caused by the herbicide was measured for each plant according to the proportion of bleached leaf area (the proportion of bleached leaf area=bleached leaf area/total leaf area×100%) 7 days after spraying (7 DAT): the case where there is basically no bleached phenotype is defined as grade 0, the case where the proportion of bleached leaf area is less than 50% is defined as grade 1, the case where the proportion of bleached leaf area is more than 50% is defined as grade 2, and the case where the proportion of bleached leaf area is 100% grade is defined as grade 3.
According to the method as described above in point 6 of Example 1, the aforementioned Arabidopsis thaliana T1 plants and wild-type Arabidopsis thaliana plants (CK) (18 days after sowing) were sprayed respectively with topramezone at three concentrations (25 g ai/ha (one-fold field concentration, 1×). 100 g ai/ha (four-fold field concentration, 4×), and 0 g ai/ha (water, 0×)), isoxaflutole at three concentrations (35 g ai/ha (half-fold field concentration, 0.5×). 70 g ai/ha (one-fold field concentration, 1×), and 0 g ai/ha (water, 0×)), and mesotrione at three concentrations (52.5 g ai/ha (half-fold field concentration, 0.5×), 105 g ai/ha (one-fold field concentration, 1×), and 0 g ai/ha (water, 0×)) to detect the tolerance of Arabidopsis thaliana to the herbicides.
According to the method as described above in point 6 of Example 1, the aforementioned Arabidopsis thaliana T1 plants and wild-type Arabidopsis thaliana plants (CK) (18 days after sowing) were sprayed with topramezone at three different concentrations (i.e., 100 g ai/ha (four-fold field concentration, 4×), 200 g ai/ha (eight-fold field concentration, 8×) and 0 g ai/ha (water, 0×)), isoxaflutole at three different concentrations (i.e., 140 g ai/ha (two-fold field concentration, 2×), 280 g ai/ha (four-fold field concentration, 4×) and 0 g ai/ha (water, 0×)), and mesotrione at three different concentrations (i.e., 210 g ai/ha (two-fold field concentration, 2×), 420 g ai/ha (four-fold field concentration, 4×) and 0 g ai/ha (water, 0×)) respectively to detect the herbicide tolerance of Arabidopsis thaliana. […]

Molecule | Resistance evaluation (mesotrione 52.5 g ai/ha) | Scores (mesotrione 52.5 g ai/ha) | Grade 0 (classification and statistics of the grade of pesticide damage; number of plants) (mesotrione 52.5 g ai/ha) | Grade 1 (classification and statistics of the grade of pesticide damage; number of plants) (mesotrione 52.5 g ai/ha) | Grade 2 (classification and statistics of the grade of pesticide damage; number of plants) (mesotrione 52.5 g ai/ha) | Grade 3 (classification and statistics of the grade of pesticide damage; number of plants) (mesotrione 52.5 g ai/ha) | Resistance evaluation (mesotrione 105 g ai/ha) | Scores (mesotrione 105 g ai/ha) | Grade 0 (classification and statistics of the grade of pesticide damage; number of plants) (mesotrione 105 g ai/ha) | Grade 1 (classification and statistics of the grade of pesticide damage; number of plants) (mesotrione 105 g ai/ha) | Grade 2 (classification and statistics of the grade of pesticide damage; number of plants) (mesotrione 105 g ai/ha) | Grade 3 (classification and statistics of the grade of pesticide damage; number of plants) (mesotrione 105 g ai/ha)
B1 | Non-resistant | 100 | 0 | 0 | 0 | 16 | Non-resistant | 100 | 0 | 0 | 0 | 16
B2 | Moderately | 21 | 7 | 8 | 1 | 0 | Moderately | 33 | 5 | 6 | 5 | 0
